Data on one substance can be found in patent US20220177580A1.

This experiment deals with huFcγRIIa-131H (His-tagged, soluble, captured for SPR) (human) (UniProt P12318). Briefly: SPR, His-tagged FcγR captured by anti-His antibody, antibody injected. For orientation: In SPR one partner is held on a chip, and binding of the other changes the refractive index at the surface.
huFcγRIIa-131H (His-tagged, soluble, captured for SPR) (human), sequence (P12318 34-217 limits assumed): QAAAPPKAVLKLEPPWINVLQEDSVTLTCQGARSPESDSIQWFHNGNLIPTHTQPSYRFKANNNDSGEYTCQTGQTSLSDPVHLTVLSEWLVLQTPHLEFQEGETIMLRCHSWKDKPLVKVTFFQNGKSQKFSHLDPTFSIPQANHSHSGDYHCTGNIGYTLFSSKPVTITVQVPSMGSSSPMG

huIgG2 control (antibody) registered a Kd of 25 µM.

The Kd is the concentration at which binding is half-saturated. High values mean a looser complex, low ones a tighter complex.
